Assay results reported in patent publication US20110293613A1 (Hoffmann-La Roche, published 2011).

Tests used:
[1] = molecular target: T1, human Insulin-like growth factor I receptor (IGF-1R) on tumor cells (human, UniProt P08069 31-1367); test: competitive FACS binding on A549 cells, competitor labeled <IGF-1R> HUMAB Clone 18, Exp. #2
T1 construct: Endogenously expressed on the human tumor cell lines; also called IGF-IR; CD 221 antigen

[2] = molecular target: T1, human Insulin-like growth factor I …; test: competitive FACS binding on TC-71 cells, competitor labeled <IGF-1R> HUMAB Clone 18, Exp. #1
[3] = molecular target: T1, human Insulin-like growth factor I …; test: competitive FACS binding on TC-71 cells, competitor labeled <IGF-1R> HUMAB Clone 18, Exp. #2
[4] = molecular target: T1, human Insulin-like growth factor I …; test: competitive FACS binding on A549 cells, competitor labeled <IGF-1R> HUMAB Clone 18, Exp. #1

T1 sequence (P08069 31-1367 limits assumed): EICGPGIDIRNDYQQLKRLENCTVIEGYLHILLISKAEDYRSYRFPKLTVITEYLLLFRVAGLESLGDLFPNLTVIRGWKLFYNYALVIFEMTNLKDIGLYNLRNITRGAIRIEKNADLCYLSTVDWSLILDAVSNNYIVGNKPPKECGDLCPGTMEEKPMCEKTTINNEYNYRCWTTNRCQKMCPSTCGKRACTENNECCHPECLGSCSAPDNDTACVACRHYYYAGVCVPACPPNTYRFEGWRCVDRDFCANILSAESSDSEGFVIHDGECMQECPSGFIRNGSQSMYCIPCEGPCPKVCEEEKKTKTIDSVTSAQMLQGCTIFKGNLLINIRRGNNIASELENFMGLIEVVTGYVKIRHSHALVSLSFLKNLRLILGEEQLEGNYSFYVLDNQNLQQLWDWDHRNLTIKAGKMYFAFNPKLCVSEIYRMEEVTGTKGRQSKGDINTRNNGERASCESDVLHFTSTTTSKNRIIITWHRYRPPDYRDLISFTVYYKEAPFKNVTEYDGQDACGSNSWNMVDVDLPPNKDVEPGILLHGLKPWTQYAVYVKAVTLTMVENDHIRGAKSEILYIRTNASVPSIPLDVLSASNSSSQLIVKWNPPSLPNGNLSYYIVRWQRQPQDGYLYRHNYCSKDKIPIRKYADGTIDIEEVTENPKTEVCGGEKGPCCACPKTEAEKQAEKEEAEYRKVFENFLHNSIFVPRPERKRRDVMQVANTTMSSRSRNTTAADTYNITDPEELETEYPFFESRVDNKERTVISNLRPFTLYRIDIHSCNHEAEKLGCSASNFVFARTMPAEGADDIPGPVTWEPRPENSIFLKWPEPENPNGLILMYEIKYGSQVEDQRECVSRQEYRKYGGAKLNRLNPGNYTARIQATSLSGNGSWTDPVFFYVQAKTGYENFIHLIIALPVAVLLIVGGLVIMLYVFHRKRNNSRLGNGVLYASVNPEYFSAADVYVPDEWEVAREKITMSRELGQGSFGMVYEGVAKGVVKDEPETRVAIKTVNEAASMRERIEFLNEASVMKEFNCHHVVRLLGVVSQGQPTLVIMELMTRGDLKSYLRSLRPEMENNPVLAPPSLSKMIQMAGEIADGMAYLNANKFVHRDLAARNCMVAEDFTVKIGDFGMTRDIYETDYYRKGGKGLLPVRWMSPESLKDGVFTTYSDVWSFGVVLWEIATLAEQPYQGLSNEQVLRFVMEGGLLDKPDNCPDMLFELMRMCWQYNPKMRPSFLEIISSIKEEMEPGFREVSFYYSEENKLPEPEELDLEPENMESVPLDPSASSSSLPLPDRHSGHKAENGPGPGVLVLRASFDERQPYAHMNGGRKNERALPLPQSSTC

B1: human anti-IGF-1R antibody <IGF-1R> HUMAB Clone 18 (DSM ACC 2587) (antibody, V domains shown)
VH: QVELVESGGGVVQPGRSQRLSCAASGFTFSSYGMHWVRQAPGKGLEWVAIIWFDGSSTYYADSVRGRFTISRDNSKNTLYLQMNSLRAEDTAVYFCARELGRRYFDLWGRGTLVSVSS
VL: EIVLTQSPATLSLSPGERATLSCRASQSVSSYLAWYQQKPGQAPRLLIYDASKRATGIPARFSGSGSGTDFTLTISSLEPEDFAVYYCQQRSKWPPWTFGQGTKVESK
- IC50 [1]: 1.5 nM
- IC50 [2]: 1.4 nM
- IC50 [3]: 1.5 nM
- IC50 [4]: 1.6 nM
